In patent publication US20190322758A1 (IMMUNOPHARMACEUTIC INSTITUTE OF HEFEI RUIDA, published 2019):

T1: recombinant LunX protein (antigenic protein fragment of SEQ ID NO: 9 with C-terminal 6His-Tag) (human, UniProt Q9NP55 103-256)
T1 construct: Expressed in E. coli Rosetta (DE3) from pET-22b(+); also called LunX prokaryotic recombinant fusion protein; human LunX protein
T1 sequence: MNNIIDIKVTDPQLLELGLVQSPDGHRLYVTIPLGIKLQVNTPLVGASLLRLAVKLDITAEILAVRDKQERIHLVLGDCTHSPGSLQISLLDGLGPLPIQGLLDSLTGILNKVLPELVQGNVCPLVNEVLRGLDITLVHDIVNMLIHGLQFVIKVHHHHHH


Molecular target: T1, recombinant LunX protein (antigenic …)
Experiment: hybridoma screening, ELISA (and FACS)

| binding result | Binder |
| --- | --- |
| binds | anti-LunX murine monoclonal antibody PrAb2 (hybridoma Ab2) (antibody, V domains shown, Mouse monoclonal antibody from hybridoma Ab2; heavy chain about 45 kDa, light chain about 25 kDa) VH: QVQLQQSGPELVKPGASVKISCKTSGYAFSRSWMSWVKQRPGQGLEWIGRIYPGDGDTKYSGKFEGKATLTADKSSSTAYMQLSSLTSVDSAVYFCARSGGIQGYGMDYWGQGTSVTVSS VL: DIVVTQSPAALAVSLGQRATISCRASKSVSTSGYTYMHWYQQKPGQPPKLLIYLASKLESGVPARFSGSGSGTDFTLNIHPVEEEDAATYYCQHSRDLTFGSGTKLEIKR |
| binds | anti-LunX murine monoclonal antibody PrAb1 (hybridoma Ab1) (antibody, V domains shown, Mouse monoclonal antibody from hybridoma Ab1; heavy chain about 45 kDa, light chain about 25 kDa) VH: QVQLQQSGPELVKPGASVKISCKTSGYAFSRSWMSWVKQRPGQGLEWIGRIYPGDGDTNYNGKFKGKATLTADKSSSTAYMQLSSLTSVDSAVYFCARSGGIQGYGMDYWGQGTSVTVSS VL: DIVLTQSPASLAVSLGQRATISCRASKSVSTAGYSYMHWYQQKPGQTPKLLIYLASKLESGVPARFSGSGSGTDFTLNIHPVEEEDAATYYCQHSRELTFGSGTKLEIKR |
